According to patent US20230272016A1, “PEPTIDES FOR IMMUNOTHERAPY” (Second Genome, Inc., priority 2020, published 2023):

How the values were obtained:
[1] = tested on: naïve CD4+ and CD8+ T cells (Th0); conditions: incubation of a naïve T cell with the polypeptide; cited from earlier work
[2] = target: T1, CD2 (cluster of differentiation 2) (Homo sapiens, UniProt P06729); assay: Pull-down and mass spectrometry target capture; format: binding; conditions: 100.0 = no target protein observed in the control pulldown
T1 construct: endogenous in cells
T1 sequence (P06729 25-351): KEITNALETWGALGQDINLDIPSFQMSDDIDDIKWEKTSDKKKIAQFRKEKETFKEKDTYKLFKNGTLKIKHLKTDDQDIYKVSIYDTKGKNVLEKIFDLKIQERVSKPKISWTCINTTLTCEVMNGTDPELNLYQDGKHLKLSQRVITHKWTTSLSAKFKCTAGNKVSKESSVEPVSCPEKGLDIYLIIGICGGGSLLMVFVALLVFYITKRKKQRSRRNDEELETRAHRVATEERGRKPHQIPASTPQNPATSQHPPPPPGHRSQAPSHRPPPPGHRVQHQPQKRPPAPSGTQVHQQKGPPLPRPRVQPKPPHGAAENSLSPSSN
Method: (§1) To identify binding partners of SG-3-0020 in human cells, pull-down and mass spectrometry analysis were used (FIG. 15). Multiple target capture experiments were performed with SG-3-0020 and controls. Binding conditions and cross-linkers were varied to achieve maximum enrichment of peptide over controls. Nine putative binding partners to SG-3-0020 were identified using MS and were nominated for confirmation using CRISPR Knock Out (KO) Experiments (Table 12, FIG. 16). The enrichment ratio was calculated as described below: […]

[3] = target: T2, Tumor necrosis factor receptor superfamily member 4 (Homo sapiens, UniProt P43489); assay: Pull-down and mass spectrometry target capture; format: binding; conditions: 100.0 = no target protein observed in the control pulldown
T2 construct: endogenous in cells
T2 sequence (P43489 29-277): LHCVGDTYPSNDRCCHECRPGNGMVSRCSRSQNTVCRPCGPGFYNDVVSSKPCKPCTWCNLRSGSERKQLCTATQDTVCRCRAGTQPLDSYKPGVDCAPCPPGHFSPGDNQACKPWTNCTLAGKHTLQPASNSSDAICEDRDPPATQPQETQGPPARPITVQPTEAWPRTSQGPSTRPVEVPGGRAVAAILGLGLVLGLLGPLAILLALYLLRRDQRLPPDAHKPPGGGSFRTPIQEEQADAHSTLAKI
Method: as §1

Prohibitin = target: T3, Prohibitin (Homo sapiens, UniProt P35232); assay: Pull-down and mass spectrometry target capture; format: binding; conditions: 100.0 = no target protein observed in the control pulldown
T3 construct: endogenous in cells
T3 sequence (P35232 1-272): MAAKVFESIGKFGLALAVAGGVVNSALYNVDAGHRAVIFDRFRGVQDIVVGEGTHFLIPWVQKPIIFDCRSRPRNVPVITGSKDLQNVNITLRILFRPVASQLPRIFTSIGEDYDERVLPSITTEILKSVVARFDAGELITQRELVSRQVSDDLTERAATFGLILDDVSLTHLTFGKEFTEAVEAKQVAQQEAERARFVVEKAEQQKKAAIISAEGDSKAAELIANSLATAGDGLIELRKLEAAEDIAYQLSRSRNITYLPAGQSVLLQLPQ
Method: as §1

[4] = tested on: primary human unstimulated T cells; assay: CRISPR knock-out target validation in T cells stimulated with anti-CD3 and peptide; format: cell-based; conditions: targets identified from mass spectrometry
Method: Functional validation was performed by CRISPR knock-out to confirm target effects on SG-3-0020-mediated activity. […] RNPs were introduced into primary human unstimulated T cells via Nucleofection and cells were cultured for 96 hours. OR1A1 served as negative control and CD3E was used as positive control. Post knock-down T cells were stimulated in vitro culture of Purified T cells with anti-CD3 (0.1 μg/mL) and SG-3-05429 (mutant SG-3-0020 with improved activity) (10 μM) and was incubated for 48 hours. A decrease in IFN-γ secretion (FIG. 17A) and a decrease in activated CD4 and CD8 T cell subsets was also observed (CD25+, PD-1+=Markers of T cell activation) (FIG. 17B) was observed after target knock-down compared to the negative control (OR1A1). […] Activation of CD2 has the potential to be a therapeutic opportunity.

Tumor necrosis factor = Tumor necrosis factor (Homo sapiens, UniProt P01375); assay: Pull-down and mass spectrometry target capture; format: binding; design: endogenous in cells; conditions: 100.0 = no target protein observed in the control pulldown
Sequence of Tumor necrosis factor (P01375 whole entry): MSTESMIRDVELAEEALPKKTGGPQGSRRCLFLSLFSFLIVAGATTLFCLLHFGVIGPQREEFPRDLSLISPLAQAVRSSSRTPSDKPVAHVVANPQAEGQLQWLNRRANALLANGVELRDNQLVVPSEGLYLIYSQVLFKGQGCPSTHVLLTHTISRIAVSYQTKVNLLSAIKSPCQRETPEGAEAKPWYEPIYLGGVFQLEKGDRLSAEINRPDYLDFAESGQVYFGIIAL
Method: as §1

[5] = target: Cation-independent mannose-6-phosphate receptor (Homo sapiens, UniProt P11717); assay: Pull-down and mass spectrometry target capture; format: binding; design: endogenous in cells; conditions: 100.0 = no target protein observed in the control pulldown
Sequence of Cation-independent mannose-6-phosphate receptor (P11717 41-2491): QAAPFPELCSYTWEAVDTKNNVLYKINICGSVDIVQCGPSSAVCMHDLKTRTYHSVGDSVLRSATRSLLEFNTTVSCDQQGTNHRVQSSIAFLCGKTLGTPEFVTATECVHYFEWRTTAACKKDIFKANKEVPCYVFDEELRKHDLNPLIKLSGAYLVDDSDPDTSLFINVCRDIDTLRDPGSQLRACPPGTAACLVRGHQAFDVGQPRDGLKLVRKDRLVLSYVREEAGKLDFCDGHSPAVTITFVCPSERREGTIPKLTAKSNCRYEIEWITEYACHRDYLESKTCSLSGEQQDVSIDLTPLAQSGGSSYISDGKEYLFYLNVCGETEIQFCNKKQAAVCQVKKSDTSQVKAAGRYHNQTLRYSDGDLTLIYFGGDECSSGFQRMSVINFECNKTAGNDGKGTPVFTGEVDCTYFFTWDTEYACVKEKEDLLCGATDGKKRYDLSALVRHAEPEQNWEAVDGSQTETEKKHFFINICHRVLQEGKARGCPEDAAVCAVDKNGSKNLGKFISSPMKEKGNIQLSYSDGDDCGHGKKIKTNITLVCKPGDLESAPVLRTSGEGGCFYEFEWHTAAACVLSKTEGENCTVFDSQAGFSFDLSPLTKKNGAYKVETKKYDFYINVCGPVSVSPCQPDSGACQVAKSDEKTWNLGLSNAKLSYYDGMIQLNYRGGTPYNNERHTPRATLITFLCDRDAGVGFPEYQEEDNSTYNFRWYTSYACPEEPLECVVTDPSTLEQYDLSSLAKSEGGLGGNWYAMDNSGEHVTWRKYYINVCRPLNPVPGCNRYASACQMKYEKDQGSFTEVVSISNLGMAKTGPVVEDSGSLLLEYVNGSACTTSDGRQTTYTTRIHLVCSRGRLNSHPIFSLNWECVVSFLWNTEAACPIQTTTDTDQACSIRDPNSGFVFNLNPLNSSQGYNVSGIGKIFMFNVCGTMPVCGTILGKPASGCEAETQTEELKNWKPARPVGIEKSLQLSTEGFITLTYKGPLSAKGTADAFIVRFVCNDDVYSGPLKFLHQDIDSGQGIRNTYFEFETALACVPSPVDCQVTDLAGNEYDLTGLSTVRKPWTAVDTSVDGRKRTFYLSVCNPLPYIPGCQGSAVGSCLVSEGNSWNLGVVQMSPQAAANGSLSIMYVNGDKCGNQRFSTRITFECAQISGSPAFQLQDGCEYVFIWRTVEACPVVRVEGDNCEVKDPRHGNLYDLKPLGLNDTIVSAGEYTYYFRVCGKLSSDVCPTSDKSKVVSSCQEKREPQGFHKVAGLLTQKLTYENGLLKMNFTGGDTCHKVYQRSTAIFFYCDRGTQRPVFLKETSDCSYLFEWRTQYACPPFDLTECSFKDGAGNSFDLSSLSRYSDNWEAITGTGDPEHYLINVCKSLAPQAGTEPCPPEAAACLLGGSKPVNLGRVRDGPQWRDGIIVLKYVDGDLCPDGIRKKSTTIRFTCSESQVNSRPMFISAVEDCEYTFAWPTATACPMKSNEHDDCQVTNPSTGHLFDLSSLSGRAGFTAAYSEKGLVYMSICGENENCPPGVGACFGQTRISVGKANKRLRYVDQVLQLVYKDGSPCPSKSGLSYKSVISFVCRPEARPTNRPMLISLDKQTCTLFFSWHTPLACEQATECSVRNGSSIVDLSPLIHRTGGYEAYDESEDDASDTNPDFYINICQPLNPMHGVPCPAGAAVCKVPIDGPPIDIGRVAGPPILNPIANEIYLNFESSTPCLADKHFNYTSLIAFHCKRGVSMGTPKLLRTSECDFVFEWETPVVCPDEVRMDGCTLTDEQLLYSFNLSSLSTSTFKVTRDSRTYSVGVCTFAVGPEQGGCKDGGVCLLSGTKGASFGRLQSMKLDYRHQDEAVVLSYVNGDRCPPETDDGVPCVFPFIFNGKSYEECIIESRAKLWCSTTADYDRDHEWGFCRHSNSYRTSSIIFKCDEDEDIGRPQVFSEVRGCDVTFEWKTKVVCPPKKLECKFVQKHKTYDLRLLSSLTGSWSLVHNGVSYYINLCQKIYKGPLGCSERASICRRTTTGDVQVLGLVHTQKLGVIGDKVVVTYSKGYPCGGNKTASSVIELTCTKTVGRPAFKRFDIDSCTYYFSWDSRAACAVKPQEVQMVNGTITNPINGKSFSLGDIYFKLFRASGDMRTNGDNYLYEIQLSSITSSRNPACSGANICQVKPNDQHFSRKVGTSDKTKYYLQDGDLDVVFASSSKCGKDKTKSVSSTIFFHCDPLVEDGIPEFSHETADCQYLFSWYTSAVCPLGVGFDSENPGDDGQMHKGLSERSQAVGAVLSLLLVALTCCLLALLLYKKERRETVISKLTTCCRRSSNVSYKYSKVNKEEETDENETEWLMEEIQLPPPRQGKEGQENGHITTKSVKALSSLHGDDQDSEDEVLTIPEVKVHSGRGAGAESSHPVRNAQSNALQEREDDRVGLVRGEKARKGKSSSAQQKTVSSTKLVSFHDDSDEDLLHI
Method: as §1

[6] = target: Bone marrow stromal antigen 2 (Homo sapiens, UniProt Q10589); assay: Pull-down and mass spectrometry target capture; format: binding; design: endogenous in cells; conditions: 100.0 = no target protein observed in the control pulldown
Sequence of Bone marrow stromal antigen 2 (Q10589 1-161 limits assumed): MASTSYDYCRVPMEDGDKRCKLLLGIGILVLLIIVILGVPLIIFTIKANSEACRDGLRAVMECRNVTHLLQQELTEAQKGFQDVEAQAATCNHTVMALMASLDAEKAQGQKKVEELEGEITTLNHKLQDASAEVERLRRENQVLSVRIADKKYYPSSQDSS
Method: as §1

[7] = target: Low-density lipoprotein receptor (Homo sapiens, UniProt P01130); assay: Pull-down and mass spectrometry target capture; format: binding; design: endogenous in cells; conditions: 100.0 = no target protein observed in the control pulldown
Sequence of Low-density lipoprotein receptor (P01130 22-860): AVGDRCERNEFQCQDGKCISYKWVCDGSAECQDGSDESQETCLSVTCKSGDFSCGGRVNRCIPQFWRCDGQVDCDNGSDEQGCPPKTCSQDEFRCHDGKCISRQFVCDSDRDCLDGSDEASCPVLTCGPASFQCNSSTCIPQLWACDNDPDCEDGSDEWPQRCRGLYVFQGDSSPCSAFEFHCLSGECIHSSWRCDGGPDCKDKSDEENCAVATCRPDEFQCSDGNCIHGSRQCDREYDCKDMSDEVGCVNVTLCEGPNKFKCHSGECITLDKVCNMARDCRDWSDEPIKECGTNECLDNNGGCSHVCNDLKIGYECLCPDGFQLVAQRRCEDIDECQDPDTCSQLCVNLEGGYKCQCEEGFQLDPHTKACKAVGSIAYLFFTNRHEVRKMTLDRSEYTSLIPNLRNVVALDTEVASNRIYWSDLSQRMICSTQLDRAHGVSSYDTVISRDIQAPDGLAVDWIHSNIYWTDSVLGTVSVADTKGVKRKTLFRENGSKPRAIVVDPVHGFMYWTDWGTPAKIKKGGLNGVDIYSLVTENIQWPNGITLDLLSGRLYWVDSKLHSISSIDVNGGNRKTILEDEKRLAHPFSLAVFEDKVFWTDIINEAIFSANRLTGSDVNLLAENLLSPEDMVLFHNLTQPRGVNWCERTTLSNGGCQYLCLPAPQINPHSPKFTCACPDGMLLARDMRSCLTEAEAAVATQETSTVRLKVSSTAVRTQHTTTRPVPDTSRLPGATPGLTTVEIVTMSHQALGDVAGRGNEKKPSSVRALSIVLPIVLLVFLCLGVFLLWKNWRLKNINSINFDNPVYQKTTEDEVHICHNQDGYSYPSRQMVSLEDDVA
Method: as §1

Teneurin-3 = Teneurin-3 (Homo sapiens, UniProt Q9P273); assay: Pull-down and mass spectrometry target capture; format: binding; design: endogenous in cells; conditions: 100.0 = no target protein observed in the control pulldown
Method: as §1

Protein AMBP = assay: Pull-down and mass spectrometry target capture; format: binding, human; conditions: 100.0 = no target protein observed in the control pulldown
Method: as §1

Enrichment ratio [2]: 1.9
Enrichment ratio (Prohibitin): 1.9
Enrichment ratio [5]: 2.1
Enrichment ratio [6]: 34.5
Enrichment ratio [7]: 100.0
Enrichment ratio (Teneurin-3): 3.4
Sequence: MLSTKKTKTHDHYPCGRMRDPGWHDWRACLTHQGIEEDEWPV [SG-3-0020, Bifidobacterium polypeptide]
number of CD4+ and/or CD8+ T cells having a CD25+/FoxP3− phenotype [1]: increase
Enrichment ratio [3]: 100.0
human targets confirmed via CRISPR KO experiments [4]: CD2, BST2, and TNF
Enrichment ratio (Tumor necrosis factor): 67.2
Enrichment ratio (Protein AMBP): 69.1
